According to article PMC10294653:
Like-named read-outs stand apart in the source and are kept apart here.

Legend:
Assay in all cases: two-hybrid; bacterial two hybrid (BACTH): T18 and T25 adenylate cyclase fusions in E. coli BTH101 (cya mutant); beta-galactosidase assay in Miller units; cultures grown overnight at 26°C, subcultured in LB, 37°C for 30 min
[1] = biological target: T25 fusion to the N terminus of WcaJ (K. pneumoniae (strain KPPR1S))
[2] = biological target: T25 fusion to the N terminus of Wzb (K. pneumoniae (strain KPPR1S))
[3] = biological target: T25 fusion to the N terminus of Wzc (K. pneumoniae (strain KPPR1S))
[4] = biological target: leucine zipper (zip) domain, positive control of the bacterial two-hybrid system
[5] = biological target: leucine zipper (zip) domain, positive control of the bacterial two-hybrid system; remark: listed apart in the source

Substance | beta-galactosidase activity relative to the zip-zip controls (% of the zip-zip controls) [1] | beta-galactosidase activity relative to the zip-zip controls (% of the zip-zip controls) [2] | beta-galactosidase activity [3] [Miller units] | beta-galactosidase activity [4] [Miller units] | beta-galactosidase activity [5] [Miller units]
RmpD-T18 (natural protein) | < 10 | < 10 | 2150 | – | –
leucine zipper (zip) domain, positive control of the bacterial two-hybrid system (domain or fragment) | – | – | – | 1530 | 1740
